Common to all, as to assay: MST
Data set [1] has as its target T1, AtGRP7short (Arabidopsis thaliana) (UniProt Q03250).
T1 sequence: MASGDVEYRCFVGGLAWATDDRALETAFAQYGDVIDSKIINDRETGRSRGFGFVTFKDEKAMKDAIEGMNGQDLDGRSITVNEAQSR
The note with it: 25 mM Tris-HCl pH 8.0, 150 mM NaCl (150 mM LiCl for Sc1 LiCl), 1 mM DTT, 0.1 mg/ml BSA; 20 nM Cy5-RNA; about 2 min incubation; temperature not stated; low values mean tight binding.

The target of data set [2] is T2, AtGRP7YtoG Y103G;Y111G;Y118G;Y131G;Y138G;Y148G;Y159G;Y167G (Arabidopsis thaliana) (UniProt Q03250).
T2 sequence: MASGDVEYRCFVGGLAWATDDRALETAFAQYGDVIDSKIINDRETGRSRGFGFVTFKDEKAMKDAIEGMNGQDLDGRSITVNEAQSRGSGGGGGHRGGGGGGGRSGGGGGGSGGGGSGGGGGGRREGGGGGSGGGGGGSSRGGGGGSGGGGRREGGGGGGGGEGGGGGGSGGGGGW
Conditions: 25 mM Tris-HCl pH 8.0, 150 mM NaCl (150 mM LiCl for Sc1 LiCl), 1 mM DTT, 0.1 mg/ml BSA; 20 nM Cy5-RNA; about 2 min incubation; temperature not stated; low values mean tight binding.

Data set [3] addresses T3, AtGRP7 (Arabidopsis thaliana) (UniProt Q03250).
T3 sequence: T2 sequence with G103Y, G111Y, G118Y, G131Y, G138Y, G148Y, G159Y, G167Y
The note with it: 25 mM Tris-HCl pH 8.0, 150 mM NaCl (150 mM LiCl for Sc1 LiCl), 1 mM DTT, 0.1 mg/ml BSA; 20 nM Cy5-RNA; about 2 min incubation; temperature not stated; low values mean tight binding.

For data set [4], the target named is T4, AtGRP7StoG S132G;S139G (Arabidopsis thaliana) (UniProt Q03250).
T4 sequence: T2 sequence with G103Y, G111Y, G118Y, G131Y, S132G, G138Y, S139G, G148Y, G159Y, G167Y
Conditions: 25 mM Tris-HCl pH 8.0, 150 mM NaCl (150 mM LiCl for Sc1 LiCl), 1 mM DTT, 0.1 mg/ml BSA; 20 nM Cy5-RNA; about 2 min incubation; temperature not stated; low values mean tight binding.

Data set [5] deals with T5, eYFP-AtGRP7RGG (Arabidopsis thaliana) (UniProt Q03250).
T5 sequence: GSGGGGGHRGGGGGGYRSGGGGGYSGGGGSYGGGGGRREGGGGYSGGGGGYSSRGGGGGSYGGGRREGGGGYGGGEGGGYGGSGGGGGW
Conditions: 25 mM Tris-HCl pH 8.0, 150 mM NaCl (150 mM LiCl for Sc1 LiCl), 1 mM DTT, 0.1 mg/ml BSA; 20 nM Cy5-RNA; about 2 min incubation; temperature not stated; low values mean tight binding.

Data set [6] has as its target T6, BnGRP7 (Brassica napus) (UniProt A0A078J5Z4).
T6 sequence: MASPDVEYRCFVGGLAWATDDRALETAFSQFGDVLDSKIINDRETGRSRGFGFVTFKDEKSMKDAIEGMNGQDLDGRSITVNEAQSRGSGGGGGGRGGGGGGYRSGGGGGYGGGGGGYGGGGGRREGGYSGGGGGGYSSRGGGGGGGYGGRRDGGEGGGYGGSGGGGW
The note with it: 25 mM Tris-HCl pH 8.0, 150 mM NaCl (150 mM LiCl for Sc1 LiCl), 1 mM DTT, 0.1 mg/ml BSA; 20 nM Cy5-RNA; about 2 min incubation; temperature not stated; low values mean tight binding.

The target of data set [7] is T7, AtGRP7StoE S132E;S139E (Arabidopsis thaliana) (UniProt Q03250).
T7 sequence: T2 sequence with G103Y, G111Y, G118Y, G131Y, S132E, G138Y, S139E, G148Y, G159Y, G167Y
The note with it: 25 mM Tris-HCl pH 8.0, 150 mM NaCl (150 mM LiCl for Sc1 LiCl), 1 mM DTT, 0.1 mg/ml BSA; 20 nM Cy5-RNA; about 2 min incubation; temperature not stated; low values mean tight binding.

Data set [8] has as its target T8, AtGRP7YtoE Y103E;Y111E;Y118E;Y131E;Y138E;Y148E;Y159E;Y167E (Arabidopsis thaliana) (UniProt Q03250).
T8 sequence: T2 sequence with G103E, G111E, G118E, G131E, G138E, G148E, G159E, G167E
Conditions: 25 mM Tris-HCl pH 8.0, 150 mM NaCl (150 mM LiCl for Sc1 LiCl), 1 mM DTT, 0.1 mg/ml BSA; 20 nM Cy5-RNA; about 2 min incubation; temperature not stated; low values mean tight binding.

Data set [9] has as its target T9, AtBnGRP7 (Arabidopsis thaliana / Brassica napus chimera) (UniProt Q03250).
T9 sequence: T6 sequence with P4G, S29A, F31Y, L35I, S61A
The note with it: 25 mM Tris-HCl pH 8.0, 150 mM NaCl (150 mM LiCl for Sc1 LiCl), 1 mM DTT, 0.1 mg/ml BSA; 20 nM Cy5-RNA; about 2 min incubation; temperature not stated; low values mean tight binding.

In data set [10] the test system is AtGRP7YtoG (Arabidopsis thaliana). Conditions: MST: 25 mM Tris-HCl pH 8.0, 150 mM NaCl, 1 mM DTT, 0.1 mg/ml BSA; 20 nM Cy5-RNA; protein titrated from 50-75 uM; about 2 min incubation; temperature not stated.
Data set [11] concerns AtGRP7StoG (Arabidopsis thaliana). The note with it: MST: 25 mM Tris-HCl pH 8.0, 150 mM NaCl, 1 mM DTT, 0.1 mg/ml BSA; 20 nM Cy5-RNA; protein titrated from 50-75 uM; about 2 min incubation; temperature not stated.
Data set [12] relates to AtBnGRP7 (Arabidopsis thaliana / Brassica napus chimera). Conditions: MST: 25 mM Tris-HCl pH 8.0, 150 mM NaCl, 1 mM DTT, 0.1 mg/ml BSA; 20 nM Cy5-RNA; protein titrated from 50-75 uM; about 2 min incubation; temperature not stated.
Data set [13] concerns BnGRP7 (Brassica napus). Conditions: MST: 25 mM Tris-HCl pH 8.0, 150 mM NaCl, 1 mM DTT, 0.1 mg/ml BSA; 20 nM Cy5-RNA; protein titrated from 50-75 uM; about 2 min incubation; temperature not stated.
In data set [14] the test system is AtGRP7StoE (Arabidopsis thaliana). The note with it: MST: 25 mM Tris-HCl pH 8.0, 150 mM NaCl, 1 mM DTT, 0.1 mg/ml BSA; 20 nM Cy5-RNA; protein titrated from 50-75 uM; about 2 min incubation; temperature not stated.
The subject of data set [15] is AtGRP7 (Arabidopsis thaliana). Conditions: MST: 25 mM Tris-HCl pH 8.0, 150 mM NaCl, 1 mM DTT, 0.1 mg/ml BSA; 20 nM Cy5-RNA; protein titrated from 50-75 uM; about 2 min incubation; temperature not stated.
In data set [16] the test system is eYFP-AtGRP7RGG (Arabidopsis thaliana). Conditions: MST: 25 mM Tris-HCl pH 8.0, 150 mM NaCl, 1 mM DTT, 0.1 mg/ml BSA; 20 nM Cy5-RNA; protein titrated from 50-75 uM; about 2 min incubation; temperature not stated.
For data set [17], the system named is AtGRP7short (Arabidopsis thaliana). Conditions: MST: 25 mM Tris-HCl pH 8.0, 150 mM NaCl, 1 mM DTT, 0.1 mg/ml BSA; 20 nM Cy5-RNA; protein titrated from 50-75 uM; about 2 min incubation; temperature not stated.
For data set [18], the target named is T3, AtGRP7 (Arabidopsis thaliana). Conditions: 25 mM Tris-HCl pH 8.0, 150 mM NaCl (150 mM LiCl for Sc1 LiCl), 1 mM DTT, 0.1 mg/ml BSA; 20 nM Cy5-RNA; about 2 min incubation; temperature not stated; low values mean tight binding. This is another data set of the same source.

Changes are numbered by the printed parent chain.

By Kd is commonly meant a measure of binding affinity in units of concentration. For “AUUUUGUUCUGGUUCUGCUUUAGAUUUGAUGU [AtGRP7 3'UTR fragment (7-UTR-WT, 32 nt)]”, the Kd in data set [1] came out at 12200 nM; in data set [2], 356 nM; in [3], 158 nM; in [4], 52 nM; in data set [5] it was 31 nM; in the data set with BnGRP7 (Brassica napus) [6] it was 17 nM. For the same substance, the figures for the dissociation constant Kd in data set [7], in [8] and in [9] were 72 nM, 701 nM and 18 nM, respectively.
As to AtCOR15A pre-mRNA, the Kd in data set [10] amounted to 3750 nM; in data set [11], 2230 nM; in data set [12] it was 741 nM; in the data set on BnGRP7 (Brassica napus) [13], 323 nM; in data set [14], 738 nM; in [15], 150 nM.
Take AtGRP7 3'UTR fragment (7-UTR-WT): the Kd stood at 31 nM in data set [16] and 160 nM in data set [15].
Taken in the same sequence, the figures for AtGRP7 CDS RNA were 2100 nM and 182 nM.
Turning to BnPARCL CDS RNA, the Kd in data set [17] was 4070 nM; in [15] it was 99.7 nM.
For the substance “GCUGCGGUGUGGAAGGAGUGGUCGGGUUGCGCAGCG [Sc1 G-quadruplex RNA]”, the Kd was 6900 nM in data set [3] and 463 nM in data set [18].
Turning to “GGAUGGCGUCCGGUGAUGUUGAGUAUCGGUGCUUCGUUGGAGGUCUAGCAUGGGCCACUGAUGACAGAGCUCUUGAGACUGCCUUCGCUCAAUACGGCGACGUUAUUGAUUCCAAGAUCAUUAACGAUCGUGAGACUGGAAGAUCAAGGGGAUUCGGAUUCGUCACCUUCAAGGAUGAGAAAGCCAUGAAGGAUGCGAUUGAGGGAAUGAACGGACAAGAUCUCGAUGGCCGUAGCAUCACUGUUAACGAGGCUCAGUCACGAGGAAGCGGUGGCGGCGGAGGCCACCGUGGAGGUGGUGGCGGUGGAUACCGCAGCGGCGGUGGUGGAGGUUACUCCGGUGGAGGUGGUAGCUACGGAGGUGGCGGCGGUAGACGCGAGGGUGGAGGAGGAUACAGCGGCGGCGGCGGCGGUUACUCCUCAAGAGGUGGUGGUGGCGGAAGCUACGGUGGUGGAAGACGUGAGGGAGGAGGAGGAUACGGUGGUGGUGAAGGAGGAGGUUACGGAGGAAGCGGUGGUGGUGGAGGAUGGUAA [AtGRP7]”, the Kd came out at 7390 nM in data set [2]; 182 nM in data set [3]; 1170 nM in data set [4]; 1520 nM in data set [5]; 3720 nM with BnGRP7 (Brassica napus) [6]; 536 nM in data set [7]. The Kd in data set [8] came to 5400 nM; in data set [9] it was 107 nM.
With UCUUGUUCUGGUUUGGUUUUGAAC [Bn-miRnovel2], the Kd in data set [1] was found to be 4490 nM; in data set [2] it was 41 nM; in data set [3], 260 nM; in data set [4] it was 22 nM; with BnGRP7 (Brassica napus) [6], 5.8 nM; in [7], 29 nM. The results for the Kd in [8] and in [9] were 267 nM and 35 nM, respectively.
With miR164, the Kd turned out to be 21 nM in the data set with BnGRP7 (Brassica napus) [13], 5930 nM in data set [17] and 42 nM in data set [15].
